Here are results for 21 sequences from a protein production outcome set (Wang et al. 2014).
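Note: failed if final PepcDB status was selected cloned or expressed and not failed if soluble or beyond.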

The data set can be described thus: label from the status in PepcDB records.
In the case of “MPFTPVDWAILGIVAISALISLKRGFVKEALSLTTWIIAGVVAWMFGAGLSQYLVNYIETPSARVIASCTILFVATLLVGAMVNFLIGELIRVTGLSGTDRFLGMVFGAARGGLLVVVAVGLLSLGPVQQDQWWQQSRLVPQFLIVADWSKNLILGMSSKWLASGISVPADLPFKEQILPPTLPQDVLGKSSSTK”, the protein production entry is “failed”. As for “PVVVAVGAHREAAAVVDTAARLARDTASPLEVVHVRRTAVVEEQAADTETDEQAKAAVTAHLDRLGGMGVTATGQILTGVGDHAAAGRALARHAAEVGARTVAVGRSPRGPLAQFADGSFTSALTHAATCTVVLVDPNAEPR”, the protein production result is on record as “failed”. On to “MRQKETTATTRFSLLPGSITRFFLLLIIVLLVTMGVMVQSAVNAWLKDKSYQIVDITHAIQKRVDTWRYVTWQIYDNIAATTSPSSGEGLQETRLKQDVYYLEKPRRKTEALIFGSHDNSTLEMTQRMSTYLDTLWGAENVPWSMYYLNGQDNSLVLISTLPLKDLTSGFKESTVSDIVDSRRAEMLQQANALDERESFSNMRRLAWQNGHYFTLRTTFNQPGHLATVVAFDLPINDLIPPGMPLDSFRLEPDATATGNNENEKEGTDSVSIHFNSTKIEISSALNSTDMRLVWQVPYGTLLLDTLQNILLPLLLNIGLLALALFGYTTFRHFSSRSTESVPSTAVNNELRILRAINEEIVSLLPLGLLVHDQESNRTVISNKIADHLLPHLNLQNITTMAEQHQGIIQATINNELYEIRMFRSQVAPRTQIFIIRDQDREVLVNKKLKQAQRLYEKNQQGRMTFMKNIGDALKEPAQSLAESAAKLNAPEGKQLANQADVLVRLVDEIQLANMLADDSWKSETELFSVQDLIDEVVPSVLPAIKRKGLQLLINNHLKAHDMRRGDRDALRRILLLLMQYAVTSTQLGKITLEVDQDESSEDRLTFRILDTGEGVSIHEMDNLHFPFINQTQNDRYGKADPLAFWLSDQLARKLGGHLNIKTRDGLGTRYSVHIKMLAADPEVEEEEERLLDDVCVMVDVTSAEIRNIVTRQLENWGATCITPDERLISQDYDIFLTDNPSNLTASGLLLSDDESGVREIGPGQLCVNFNMSNAMQEAVLQLIEVQLAQEEVTESPLGGDENAQLHASGYYALFVDTVPDDVKRLYTEAATSDFAALAQTAHRLKGVFAMLNLVPGKQLCETLEHLIREKDVPGIEKYISDIDSYVKSLL”, for which the protein production entry is listed as “failed”. To “MHQQTLWLFSGIALVLIIATLISETLRWRARERPSAVLDNLVARIRAWWVMAAVVGLAFVFGRAGVIGLFALVSLFALREFITLTPTRRGDYYALLAAFYVVLPWQYGLVWTGWYGLYTLLIPVYAFLVLPILATIGGDTTRYLERTAKVQWGLMICVFCISHVPALLNLDIPGYAGRNLLLIAFLVIVVQSSDVLQYVWGKLAGRHLIAPKLSPSKTVEGFIGGVVSASLLGMALWWITPFAPWHAFGLALVANLMGFFGGLVMSAIKRDRGIKDWGHMIEGHGGVLDRLDSVCFAAPVFFHLIRYGWA” belongs “failed”. Under “EPPKLVNDKPHKFKDHFFKKPKFCDVCARMIVLNNKFGLRCKNCKTNIHEHCQSYVEMQRC” stands “not failed”; under “MAQRERKAGVVKRDKADKWNHVETARYFRDLQENEVRTMHYLGLAYVVLSRRPNLQLKVPLSTQNYEDGAIVGAGERGGYALQLLFTCAANYPLARPLVEIVEKRNVSDAFEQVLRKEIDLILEEHLGLQMIVPVVTRLQITLNTEMKRQRF”, “failed”. Turning to “MQPTGNQIQQNQQQQQQLIMRVPKQEVSVSGAARRYVQQAPPNRPPRQNHQNGAIGGKKSSVTIQEVPNNAYLETLNKSGNNKVDDDKLPVFLIKLWNIVEDPNLQSIVHWDDSGASFHISDPYLFGRNVLPHFFKHNNMNSMVRQLNMYGFRKMTPLSQGGLTRTESDQDHLEFSHPCFVQGRPELLSQIKRK”, the protein production result was “not failed”. To “TIDLRMQQYAEEAMVKQMKEVLQPIFDKEKRGRSYAPFSRDITSDEQRSILLRAMKQTDRWREMKKAGISESEIRASFNKKRKMQVWNWRGTIDTVMSPLDSIKYLKGILRTGFMAMNPHNGHIKAYVGGINFRNFQYDMVSQGRRQVGSTIKPFLYSLSMLEGISPCDEMLHVSQTLFTESGKAWTPKNTGARRTGEMVSIKWGLQNSSNWVTAYLMGRTSPYTFVRLLRSYGLSGYLEPSLSICLGTPDVSVQEMVSAYTTFVNKGIRVNPLPITRIEDQYGNVVAQFSPNMVEVLPPDAAYKMLYMLKSVVDGGTGSRLRYRYGFKLDMGGKTGTTQNNSDGWFVGFTPSLVAGCWVGGEDRSVHFDSMSNGQGAASALPIFAEFLKRVYADPKLGYTTE” belongs “failed”; to “MPDLGLTDAESLGHCLFDTGFGVCGIAWRAFEGKDEAPVVTLFLLPEATAAGTAAAMARRCGGSPTVPPPAIAEVIEKVRRHFRGDLQDFSRVRVEPDGAGPFARAVYSAARDVPAGQIRTYGELARALNRPAAARAVGQALGRNPVPLIIPCHRILGAGGKLGGFSAHGGVATKARMLRLEGVAV”, “failed”. Under “MSHVELQPGFDFQQAGKEVLAIERECLAELDQYINQNFTLACEKMFWCKGKVVVMGMGKSGHIGRKMAATFASTGTPSFFVHPGEAAHGDLGMVTPQDVVIAISNSGESSEITALIPVLKRLHVPLICITGRPESSMARAADVHLCVKVAKEACPLGLAPTSSTTATLVMGDALAVALLKARGFTAEDFALSHPGGALGRKLLLRVNDIMHTGDEIPHVKKTASLRDALLEVTRKNLGMTVICDDNMMIEGIFTDGDLRRVFDMGVDVRQLSIADVMTPGGIRVRPGILAVEALNLMQSRHITSVMVADGDHLLGVLHMHDLLRAGVV” stands “failed”; under “MIKNNIKHTWYFGHPQQLVWDYLTKPELLSQWLMESDFQPVAGHTFMFNTKPKVKVGFDGLIYCQVLKVQPDHELEHHHHHH”, “not failed”; under “MERLAPAKVNLGLSVRFRREDGYHELHTLFAPFSLADRLVVEPVSSGLHFQGPYGRENLAYRAASLYLEAAGQPGGVRILLEKRIPEGAGLGGGSSDAAQVLLALQALYPAEVDLFALARTLGADVPFFLLGRGAEARGVGERLKPLALPPVPAVVFFPGLRVPTPLVYRAVRPEDFGPDLPVEAILEALARGEEPPYWNSLEGPAFRLFPELKEVRGRMRALGLRGVLMSGSGSAFFGLAEGPDHARRAAEALRAWGRAWAGTLGGGDAGSGPA”, “not failed”. To “MKIIIVGGGVTGSELARRLIRKKHDVVLIERDEETARHAANRLDCMVVQAAGNDTQILLDAGIKKAEAMIAVTDSDELNMIICGIADSLAPQVIKIARVRNEDYVKALNFSEERTLGINALVYPDEEAALAVIQAIEHGAVSDILSFENSSYELSRFNVCEKSTLDGLAVFDIRKYVDIPFIVVSVEQNGKNRIPSGDTILTAGTRVSILTKPEHIKRFYELSGFETQEFKKIALVGMGRIGKSIAEYLLKNSKGKSFLSKLLPINLNQKWKISIIETNDKKAKEVAAEFPEASIYKADVTDESFVDEIGLDSFDLVICTTPNYEFNMIACAYLKTLGVYKTISLVQSAVLENVAYKIGVDVAVSFKDVVVDSIMSHLVSENVTSVHTMGDGKLEIIELQVSEKSPVLGQKLKDISQHGVYLVLLVTDENGEQIPTGDTEVKAGYKIVFIVKSSRSDEIIKIFGGN” belongs “failed”; to “MKQMSITLIFIMAFTIIIHAVETSSYSIRLAGVRLKKIAVALSVVGMVLLISRTSNLLQAFLIGGIVDEAKLDSSIDLEHIIRLVLLSASIGTLLAIILYPTLTKLFGYVIQNFETDGSFIRMMKTNNIQKLKYTKKYVRFPKLEMIHRLRIGGIPKRIMLINMFATAIYTAGVLSALYASFLNPDYATNASTASGLVNGFATILLTVLLDPRIALLTERALQSENGAESMSKMYGWLMISRLFGTLLAQLLFVPGAYWILWIIELIH”, “failed”.

In the case of “MKSSTMTSDYYKQTQIDQTLRLREVLKTLPPFAKDYFRAMEPKSSAKTRINYAYDIRVFFHFLLENNPIYKNYTMDQFRVQDLERIEPVDIEEYMEYLKVYKREDNEMITNGERGLKRKMSALRSFYSYYFKHQYIATNPTLLEHHHHHH”, the protein production result is reported as “failed”. To “MAWNKQVALVFLPSDSGVDGARSLYGDTEPPGLRRWLDSGVRNLIKRTQFAIPPLALMILASIEVPGVEQTLCDLRFEEFPFDRQWDLVGISVQTGMASKAFELADRLRSRGVKVVLGGPHVTMFPDSCRAHADCLVHGEADDLWRDVLADLVTDSLKAEYRPDAPPDLQLHRPVSRASLKKNRYFTTNLVQTGRGCPYQCDFCNVHVLNGRVLRQRKIDHIVDEVRRFSEEDKRIFFFVDDSINGDPLFARELFKHLIPLNITWFGQATTALGQQPELLDTFARSGCRALLVGIESIEPSSRIAHKKTQNRTDELAGNIRAIRKSGISLYGSFIYGLDGDTLQTPQAILDFIADTRLDVPGINTLRPIPGTKVFDRLREEGRLLFDPEDITSFRYTFGQEMLYRPKNIPLPEFIESYSELTRKVFNIGNAIRRGLEAPGINAAVLFFNLFYTHLYRLSRNDLRKQLETLGSA” belongs “failed”; to “MKPSLRIYRYPPPPSQRTPCALTIGNFDGVHLGHQAILARVRQEARARGLVPAVMTFEPHPREYFATLNRRPELAPTRISGLRDKLQALAAAGIEQVAVERFDARLAEMSANAFIEDLLVAGLQTRWLLVGEDFRYGHKRSGDIDLLREAGLAHGFEVCTLADITDRQGHRISSSEVRTALAVGDLDRAAQLLGQPFHISGHVIHGRKLGRELGFPTMNLRVAPRCATRSGIYVVRVLGLQDRPLPAVASLGVRPTVEDRGRVLLEAHLLDESLDAYGKLVRVEFLHKLRDEEKFADLPSLTAAIAQDAQNARAYFAVHGL”, “failed”; to “MPEISPYVTKTEVQLMMAGLDYRKTNGSRDTAPKGQLPWIVDAAQAIADSTFIRVHIERKYDVDLDFGLTGRERAQAWAIERMIENQLGWVSTYFRFLEPANFERGPARAFDQAPGHLRDELRQGLREAVAANIRAVGVGRHLREEVAWLGGLSLRALDELLEDKAYLMRDAYPVGVDATAFAMLAAIMTPFFDSPLRRQAERYPRLVAYVGRMMERFYPAHPWGLRQAA”, “failed”. Under “MSSATKSSPATGGYLHYATLAPWKTLLRTRAYPGSLAGGSEATEATVAMELAEDWLVESLRLYQDFHAFDLSGATRVLEWVGEKGVFVAGYESLKKNEILHLILPLRLSVKENQGLYPERDFKVRHGGFSDRAVFDLKHVPDTRLLVTSGLPGCYIQVWQIREDNDVIEAVSTIDVQDKEESLWPRVSIFCSAAPGILHGARLSGLRTVDVESRKITYSSDTTDSESLSSLQVLDADTFAFCGTSGRLGLVDTRQKWAPLETVSPRAGSSGERWCAEVRSKGQGPGPCIASLGSDGQLCLLDPRNLRDPVSSAQCPVFKSSPDPELLRVTWAPGLDNCLAISGFDGTVQIYDVTSWDGKKTQVEALFIHKGHIFLDGNEVESAPLVTTHTWHPSKPRTLLSAASDAALHVWDWVDLQAS” stands “failed”. To “MIMMENDRISDFFIVAFIFSWVLWIPVAMVSAGFSFPQPLQAFLESPYNPAAFGPTLAAVLLSYRYGGRDELLALLRKGVNYDFHRIWWPVILLFFPVLTAVALYLGVLWGDPQPYLYWTSQPLMVIMVFIYIFFLGGPLQEEFGWRGYALPRLQRRYSPIYAALIIGFIWGLWHIPLFFIGGSIQSQVPFWSFMILIISASVIYTWVYNSTGSILATMIIHTTGNLSYFLFPVQGTLAGGIFLMILNVAAALAVMLFAGSELKTDFGGQGH” belongs “failed”. For the sequence “MPSDNQRLALLPVGRTGRLDRPSLLLTGGSGVLGRALIDELSPDFDLLCLRRDTPLRDPRVRELQGDLVAPRLGLSPLAWHELALEVDVVLHCAAETDWRTPPQDITRTNLRGADTVLDLAARADAPLYLVSTAFVANTPTEEDRRHFPGAAAYLDSMARAEQMTREAGVPGAIVRPSVVMGDSGSGRIAGRQGLTRMIGSMVLGQAPVLPGAPATRIDMVPRDYVSRAIGDLVRGGVADGEYWLTAGQEAMGLREFADVCADVAVRHGLPRPQRPRFIPVDAVHRLLLPMLAGTSLPASLRRRLEYYAELLLVFQRELPFDTSLGEPDCGTRPTRTDLRAALVRNAESWAGNRAGLLSPNRSAATAPMEVAS”, the protein production result is on record as “failed”.
